From patent publication US20250346673A1 (DUALITY BIOLOGICS SUZHOU, published 2025) come the findings set out here.

The target of assay [1] is T1, Recombinant Human BDCA2 (human, UniProt Q8WTT0 45-213, limits assumed).
T1 construct: also called hBDCA2 (SPR analyte); human BDCA2 antigen
T1 sequence (looked up): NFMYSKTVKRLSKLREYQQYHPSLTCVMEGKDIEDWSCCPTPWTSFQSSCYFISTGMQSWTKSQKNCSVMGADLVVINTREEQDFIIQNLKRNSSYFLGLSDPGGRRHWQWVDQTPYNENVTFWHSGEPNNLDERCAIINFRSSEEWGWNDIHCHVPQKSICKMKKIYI
As to the kind of experiment: SPR (BIAcore), antibody captured by anti-human IgG (Fc), hBDCA2 as analyte, 1:1 model. The protocol: Then 1 M ethanolamine was injected at 10 μL/min flow rate for 420 seconds, and the excess active carboxyl groups on chip were blocked. The humanized antibodies were injected into a detection channel flow cell at flow rate of 10 μL/min for 60 s for capture after diluting to 1 μg/mL using running buffer. […] The sample hBDCA2 to be tested of each concentration gradient was injected into the detection channel at 30 μL/min flow rate, two samples at 0 concentration were used to remove background signal. The binding and dissociation times between antigen and antibody were 180 and 400 sec, respectively. An analysis of data was performed using Biacore Insight Evaluation Software (Version 2.0. 15.12933). A 1:1 binding model was selected for curve fitting and kinetic parameters were calculated after subtraction of signal of the reference channel (flow cell 1) and at 0 concentration.
(Surface plasmon resonance follows binding to a sensor surface in real time, without labels.)

In assay [2] the target is T2, human BDCA2 (human, UniProt Q8WTT0 1-213).
T2 construct: whole, on cells; also called hBDCA2; Blood dendritic cell antigen 2
T2 sequence (looked up): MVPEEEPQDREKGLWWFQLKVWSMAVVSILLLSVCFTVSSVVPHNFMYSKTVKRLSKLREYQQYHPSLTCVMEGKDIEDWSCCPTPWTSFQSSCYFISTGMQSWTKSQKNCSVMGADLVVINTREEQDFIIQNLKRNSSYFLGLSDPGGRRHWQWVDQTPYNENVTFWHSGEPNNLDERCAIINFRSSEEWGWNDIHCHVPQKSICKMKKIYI
Kind of assay: FACS, CHOK1-humanBDCA2 cells. As to the method: (§1) The cells were recovered and resuspended to 2×10⁶/mL with FACS buffer (PBS+2% FBS). The resuspended cells were added to 3799 cell plates at 100 μL/well, and the supernatant was discarded after centrifugation at 300 g. […] The cells were incubated at 4° C. for 1 h. The incubated cells were centrifuged at […] for 5 min and washed twice with FACS buffer. 100 μL Goat anti-Human IgG (H+L) Cross-Adsorbed Secondary Antibody, Alexa Fluor 488 (Sigma, A11013; 1:1000) secondary antibody was added, washed twice with FACS buffer after incubation at 4° C. for 1 h. The cells were resuspended with PBS, then the fluorescence signal of antibodies bound to cell surface was analyzed with FACS (BD FACS CantoTM II) instrument and curves were fitted with GraphPad Prism6 to calculate EC₅₀ values for antibodies binding to BDCA2 antigen.

The target of assay [3] is T3, cynomolgus BDCA2 (cynomolgus monkey, UniProt A0A2K5UWP4 1-212).
T3 construct: whole, on cells; also called Cyno BDCA2; cynoBDCA2
T3 sequence: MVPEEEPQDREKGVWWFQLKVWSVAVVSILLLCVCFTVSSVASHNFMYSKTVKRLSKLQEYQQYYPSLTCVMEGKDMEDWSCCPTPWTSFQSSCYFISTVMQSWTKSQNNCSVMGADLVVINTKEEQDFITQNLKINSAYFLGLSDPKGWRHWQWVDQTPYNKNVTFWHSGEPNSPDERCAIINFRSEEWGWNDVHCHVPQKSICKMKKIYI
As to the kind of experiment: FACS, 293F-cynoBDCA2 cells. As to the method: as §1

For assay [4], the target named is T2, human BDCA2. As to the kind of experiment: cell-based or functional assay.

B1: Hu033-02 (antibody, IgG1, V domains shown)
VH: EVQLVESGGGLVKPGGSLRLSCAASGFTFSSYGMSWVRQAPGKGLEWVSTISSGDSYTYYPDSVKGRFTISRDNAKNSLYLQMNSLRAEDTAVYYCARQIYYDYAYYFDFWGQGTTVTVSS
VL: DIVLTQSPASLAVSPGQRATITCRASESVSFRTSHLMHWYQQKPGQPPKLLIYGASNLESGVPARFSGSGSETDFTLTINPVEAEDTANYYCQQSIEDPPTFGGGTKVEIK
notes: Humanized IgG1; also called Hu033-02(BM2)
Consider B1, for which, in assay [1], the dissociation constant (Kd) (commonly the concentration at which binding is half-saturated) was determined as 0.239 nM; the koff (as a rule, a measure of how fast the partners let go of each other) is 0.000169 s⁻¹; the kon (usually the second-order rate constant of association) came to 707000 M⁻¹ s⁻¹. In addition, a half-maximal effect in assay [2] (EC50) was put at 0.44 nM. Further, in assay [3], the EC50 (as a rule, the concentration at which the effect is half-maximal) worked out at 1.2 nM. Moreover, the “EC50 (nM), inhibition of CpG-A stimulated IFNα release from human PBMC” value (“EC50 (nM), inhibition” below) in assay [4] came out at 0.02 nM.

B2: Hu033-16 (antibody, IgG1, V domains shown)
VH: EVQLVESGGGLVKPGGSLRLSCAASGFTFRSYGMSWVRQAPGKRLEWVSTISSGDSYTYYPDSVKGRFTISRDNAKNSLYLQMNSLRAEDTAVYYCARQIYYDYAYYFDFWGQGTTVTVSS
VL: EIVLTQSPATLSLSPGERATLSCRASESVSFRTSHLMHWYQQKPGQAPRLLIYGASNLESGIPARFSGSGSETDFTLTISRLEPEDFAVYFCQQSIEDPPTFGGGTKVEIK
notes: Humanized IgG1; also called Hu033-16(BM4)
As to B2, in assay [1], the dissociation constant Kd was 0.191 nM, the off-rate constant (koff) is 0.000108 s⁻¹ and the kon was 569000 M⁻¹ s⁻¹. This molecule had a concentration for a half-maximal effect (EC50) in assay [2] of 0.63 nM. This molecule also returned an EC50 in assay [3] of 1.37 nM. Moreover, the “EC50 (nM), inhibition” value in assay [4] was 0.01 nM.

B3: Hu033-04 (antibody, IgG1, V domains shown)
VH: EVQLVESGGGLVKPGGSLRLSCAASGFTFSSYGMSWVRQAPGKGLEWVSTISSGDSYTYYPDSVKGRFTISRDNAKNSLYLQMNSLRAEDTAVYYCARQIYYDYAYYFDFWGQGTTVTVSS
VL: DIVMTQSPDSLAVSLGERATINCRASESVSFRTSHLMHWYQQKPGQPPKLLIYGASNLESGVPDRFSGSGSGTDFTLTISSLQAEDVAVYYCQQSIEDPPTFGGGTKVEIK
notes: Humanized IgG1; also called Hu033-04(BM0)
Turning to B3, in assay [1], the dissociation constant Kd is 0.323 nM, the koff turned out to be 0.000193 s⁻¹ and the kon is 598000 M⁻¹ s⁻¹. In assay [2], this molecule displayed a concentration for a half-maximal effect (EC50) of 0.61 nM. This molecule also came in with an EC50 in assay [3] of 1.33 nM. The “EC50 (nM), inhibition” value in assay [4] came to 0.03 nM.

B4: Hu033-10 (antibody, IgG1, V domains shown)
VH: EVQLVESGGGLVKPGGSLRLSCAASGFTFRSYGMSWVRQAPGKRLEWVSTISSGDSYTYYPDSVKGRFTISRDNAKNSLYLQMNSLRAEDTAVYYCARQIYYDYAYYFDFWGQGTTVTVSS
VL: DIVLTQSPASLAVSPGQRATITCRASESVSFRTSHLMHWYQQKPGQPPKLLIYGASNLESGVPARFSGSGSETDFTLTINPVEAEDTANYYCQQSIEDPPTFGGGTKVEIK
notes: Humanized IgG1; also called Hu033-10(BM4)
Turning to B4, in assay [1], the Kd was determined as 0.2 nM, the koff came out at 0.000118 s⁻¹ and the association rate constant (kon) was 589000 M⁻¹ s⁻¹. The molecule further showed an EC50 in assay [2] of 0.51 nM. For the same molecule, the 50% effective concentration (EC50) in assay [3] is 1.27 nM. Besides, the “EC50 (nM), inhibition” value in assay [4] turned out to be 0.01 nM.

B5: Hu033-12 (antibody, IgG1, V domains shown)
VH: EVQLVESGGGLVKPGGSLRLSCAASGFTFRSYGMSWVRQAPGKRLEWVSTISSGDSYTYYPDSVKGRFTISRDNAKNSLYLQMNSLRAEDTAVYYCARQIYYDYAYYFDFWGQGTTVTVSS
VL: DIVMTQSPDSLAVSLGERATINCRASESVSFRTSHLMHWYQQKPGQPPKLLIYGASNLESGVPDRFSGSGSGTDFTLTISSLQAEDVAVYYCQQSIEDPPTFGGGTKVEIK
notes: Humanized IgG1; also called Hu033-12(BM2)
Consider B5, for which, in assay [1], the Kd was found to be 0.283 nM, the koff turned out to be 0.000149 s⁻¹ and the kon worked out at 527000 M⁻¹ s⁻¹. This molecule returned a concentration for a half-maximal effect (EC50) in assay [2] of 0.45 nM. The same molecule had a concentration giving a half-maximal response (EC50) in assay [3] of 1.07 nM. In addition, the “EC50 (nM), inhibition” value in assay [4] was 0.02 nM.

B6: Hu033-13 (antibody, IgG1, V domains shown)
VH: EVQLVESGGGLVKPGGSLRLSCAASGFTFRSYGMSWVRQAPGKRLEWVSTISSGDSYTYYPDSVKGRFTISRDNAKNSLYLQMNSLRAEDTAVYYCARQIYYDYAYYFDFWGQGTTVTVSS
VL: DIVLTQSPDSLAVSLGERATINCRASESVSFRTSHLMHWYQQKPGQPPKLLIYGASNLESGVPDRFSGSGSGTDFTLTISSLQAEDVAVYFCQQSIEDPPTFGGGTKVEIK
notes: Humanized IgG1; also called Hu033-13(BM4)
For B6, in assay [1], the dissociation constant Kd amounted to 0.338 nM, the koff is 0.000153 s⁻¹ and the kon is 454000 M⁻¹ s⁻¹. The molecule further gave a half-maximal effective concentration (EC50) in assay [2] of 0.68 nM. In assay [3], this molecule returned an EC50 of 1.13 nM. Besides, in assay [4], the “EC50 (nM), inhibition” value is 0.01 nM.

B7: Hu033-06 (antibody, IgG1, V domains shown)
VH: EVQLVESGGGLVKPGGSLRLSCAASGFTFSSYGMSWVRQAPGKGLEWVSTISSGDSYTYYPDSVKGRFTISRDNAKNSLYLQMNSLRAEDTAVYYCARQIYYDYAYYFDFWGQGTTVTVSS
VL: DIVLTQSPDSLAVSLGERATINCRASESVSFRTSHLMHWYQQKPGQPPKLLIYGASNLESGVPDRFSGSGSETDFTLTISPLQAEDVAVYFCQQSIEDPPTFGGGTKVEIK
notes: Humanized IgG1; also called Hu033-06(BM3)
Regarding B7, in assay [1], the dissociation constant (Kd) is 0.17 nM, the off-rate (koff) amounted to 0.000125 s⁻¹ and the kon turned out to be 733000 M⁻¹ s⁻¹. This molecule also yielded an EC50 in assay [2] of 0.62 nM. Besides, the EC50 in assay [3] was determined as 1.41 nM. Further, in assay [4], the “EC50 (nM), inhibition” value amounted to 0.02 nM.

B8: Hu033-23 (antibody, IgG1, V domains shown)
VH: EVQLVESGGGLVKPGGSLRLSCAASGFTFRSYGMSWVRQAPGKRLEWVSTISSGDSYTYYPDSVKGRFTISRDNAKNSLYLQMNSLKAEDTAVYYCARQIYYDYAYYFDFWGQGTTVTVSS
VL: EIVLTQSPATLSLSPGERATLSCRASESVSFRTSHLMHWYQQKPGQAPRLLIYGASNLESGIPARFSGSGSGTDFTLTISRLEPEDFAVYYCQQSIEDPPTFGGGTKVEIK
notes: Humanized IgG1; also called Hu033-23(BM3)
Turning to B8, in assay [1], the Kd was 0.444 nM, the koff is 0.000207 s⁻¹ and the kon was 466000 M⁻¹ s⁻¹. In assay [2], this molecule came in with an EC50 of 0.79 nM. Further, in assay [3], a half-maximal effect (EC50) was put at 1.24 nM. Besides, the “EC50 (nM), inhibition” value in assay [4] is 0.03 nM.

B9: Hu033-08 (antibody, IgG1, V domains shown)
VH: EVQLVESGGGLVKPGGSLRLSCAASGFTFSSYGMSWVRQAPGKGLEWVSTISSGDSYTYYPDSVKGRFTISRDNAKNSLYLQMNSLRAEDTAVYYCARQIYYDYAYYFDFWGQGTTVTVSS
VL: EIVLTQSPATLSLSPGERATLSCRASESVSFRTSHLMHWYQQKPGQAPRLLIYGASNLESGIPARFSGSGSETDFTLTISRLEPEDFAVYFCQQSIEDPPTFGGGTKVEIK
notes: Humanized IgG1; also called Hu033-08(BM2)
On to B9, for which, in assay [1], the Kd is 0.229 nM, the koff amounted to 0.000169 s⁻¹ and the kon was determined as 740000 M⁻¹ s⁻¹. It took 0.62 nM to reach a half-maximal effect in assay [2] (EC50). In addition, in assay [3], the concentration giving a half-maximal response (EC50) came to 1.53 nM. For the same molecule, the “EC50 (nM), inhibition” value in assay [4] turned out to be 0.02 nM.

B10: Hu033-15 (antibody, IgG1, V domains shown)
VH: EVQLVESGGGLVKPGGSLRLSCAASGFTFRSYGMSWVRQAPGKRLEWVSTISSGDSYTYYPDSVKGRFTISRDNAKNSLYLQMNSLRAEDTAVYYCARQIYYDYAYYFDFWGQGTTVTVSS
VL: EIVLTQSPATLSLSPGERATLSCRASESVSFRTSHLMHWYQQKPGQAPRLLIYGASNLESGIPARFSGSGSGTDFTLTISRLEPEDFAVYYCQQSIEDPPTFGGGTKVEIK
notes: Humanized IgG1; also called Hu033-15(BM2)
For the molecule B10, in assay [1], the equilibrium dissociation constant (Kd) amounted to 0.467 nM, the koff is 0.000227 s⁻¹ and the association rate constant (kon) turned out to be 487000 M⁻¹ s⁻¹. Moreover, the midpoint of the response in assay [2], the EC50, lay at 0.76 nM. This molecule registered a half-maximal effective concentration (EC50) in assay [3] of 1.27 nM. The “EC50 (nM), inhibition” value in assay [4] came to 0.02 nM.
